Laboratory results taken from patent US20240199762A1 (PHILOGEN S P A, published 2024).

Target: T1, human FAP expressed on transduced cells (SKRC52-hFAP, HT-1080-hFAP) (human, UniProt Q12884 1-760)
T1 construct: whole, on cells; Also the target in SKRC52-hFAP tumor cryosections and in tumors of tumor-bearing mice; also called cell-expressed human FAP
T1 sequence (looked up): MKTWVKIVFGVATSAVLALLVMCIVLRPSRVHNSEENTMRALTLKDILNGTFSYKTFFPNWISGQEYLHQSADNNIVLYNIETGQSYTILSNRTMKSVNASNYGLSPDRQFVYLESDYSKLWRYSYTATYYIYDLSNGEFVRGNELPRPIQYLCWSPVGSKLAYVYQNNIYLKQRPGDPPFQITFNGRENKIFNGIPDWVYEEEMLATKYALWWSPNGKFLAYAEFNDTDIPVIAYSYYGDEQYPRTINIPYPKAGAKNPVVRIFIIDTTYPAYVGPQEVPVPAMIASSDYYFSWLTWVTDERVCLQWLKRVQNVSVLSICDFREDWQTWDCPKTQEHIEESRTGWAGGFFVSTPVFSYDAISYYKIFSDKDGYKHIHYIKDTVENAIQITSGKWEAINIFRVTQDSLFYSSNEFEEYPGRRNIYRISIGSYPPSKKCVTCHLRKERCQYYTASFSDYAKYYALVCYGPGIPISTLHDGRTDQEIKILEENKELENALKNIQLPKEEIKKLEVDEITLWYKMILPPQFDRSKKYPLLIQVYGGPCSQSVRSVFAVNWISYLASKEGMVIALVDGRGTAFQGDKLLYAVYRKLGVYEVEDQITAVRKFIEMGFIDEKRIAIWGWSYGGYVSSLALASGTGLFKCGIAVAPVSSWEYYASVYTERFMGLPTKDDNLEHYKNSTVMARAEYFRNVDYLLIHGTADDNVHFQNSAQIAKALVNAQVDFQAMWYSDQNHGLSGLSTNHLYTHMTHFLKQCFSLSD
Test: immunofluorescence on SKRC52-hFAP tumor cryosections, FITC conjugate
Procedure: Immunofluorescence experiments were performed with 7NP2 and KSF (negative control), both in IgG1 format on cryosections of renal cell carcinoma SKRC52-hFAP tumor tissue slides, which were transduced to express human FAP. The 7NP2 and KSF IgG1 molecules were conjugated to FITC to allow detection. Cryostat sections (10 μm) were stained using the 7NP2 and KSF IgG1 conjugates at a final concentration of 10 μg/mL and detected with rabbit anti-FITC and goat anti-rabbit AlexaFluor488 antibody. Slides were mounted with fluorescent mounting medium and analyzed with a microscope (FIG. 5).

binding result: no binding (tested: 10 µg/mL)
B1: anti-hen egg lysozyme antibody KSF in IgG1 format (antibody, V domains shown)
VH: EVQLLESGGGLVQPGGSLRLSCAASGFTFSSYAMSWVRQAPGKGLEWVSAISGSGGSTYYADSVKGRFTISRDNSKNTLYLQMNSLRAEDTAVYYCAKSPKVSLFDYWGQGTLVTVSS
VL: SSELTQDPAVSVALGQTVRITCQGDSLRSYYASWYQQKPGQAPVLVIYGKNNRPSGIPDRFSGSSSGNTASLTITGAQAEDEADYYCQSSPLNRLAVVFGGGTKLTVLG
notes: Negative control; It was conjugated to FITC in the immunofluorescence and ex vivo experiments; also called KSF IgG1; KSF(IgG1)
